According to FireProtDB (doi:10.1126/science.aai7825):

Conditions: Escherichia coli (strain K12); pH 7.5; Thermal; Intensity; HEPES 20mM; transition: 2

Sequence of Adenylate kinase wild type, P69441 (P69441 whole entry): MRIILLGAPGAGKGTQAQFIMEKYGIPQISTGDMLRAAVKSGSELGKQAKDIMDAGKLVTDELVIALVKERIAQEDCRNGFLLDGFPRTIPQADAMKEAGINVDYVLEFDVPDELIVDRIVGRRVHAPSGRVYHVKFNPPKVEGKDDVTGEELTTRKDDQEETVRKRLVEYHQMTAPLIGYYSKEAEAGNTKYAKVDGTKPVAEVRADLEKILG

For Adenylate kinase wild type, P69441, the Tm was 42.5 °C.
